This is an account of results in patent publication US20200216495A1 (ADRX, published 2020).

Several values for one entry are separate records, joined by “and”; a condition that tells them apart may be missing. Equal values may be shown once. Square brackets hold non-standard residues; d marks the D form. Ends that are not written are not given here. dMet(O) = CS(=O)CC[C@@H](N)C(=O)O

This test concerns the target Tau40 P301L protein (human). The test can be described thus: cell-based or functional assay.
As to [dL][dH][dI][dR][dL][dR][dH][dW] [lhirlrhw (PEPTIDE ID NO: 153)], the “IC50, Tau40 assay (ThT)” value was 1840 nM and 1880 nM.

For [dL][dK][dI][dR][dI][dY][dY] [lkiriyy (PEPTIDE ID NO: 277)], the “IC50, Tau40 assay (ThT)” value is 1570 nM.

[dF][dK][dI][dH][dI][dK][dH][dY] [fkihikhy (PEPTIDE ID NO: 127)]: the “IC50, Tau40 assay (ThT)” value is 1650 nM and 1790 nM.

Consider [dR][dL][dR][dI][dR][dW] [rlrirw (PEPTIDE ID NO: 27)], for which the “IC50, Tau40 assay (ThT)” value was found to be 1610 nM.

For [dW][dK][dV][dK][dF][dQ][dH][dW] [wkvkfqhw (PEPTIDE ID NO: 94)], the “IC50, Tau40 assay (ThT)” value was found to be 1690 nM.

Consider [dW][dR][dL][dK][dV][dN][dW] [wrlkvnw (PEPTIDE ID NO: 296)], for which the “IC50, Tau40 assay (ThT)” value was found to be 1870 nM.

Consider [dW][dR][dL][dR][dL][dR][dW] [wrlrlrw (PEPTIDE ID NO: 200)], for which the “IC50, Tau40 assay (ThT)” value amounted to 700 nM.

As to [dR][dR][dL][dK][dV][dR][dW][dR] [rrlkvrwr (PEPTIDE ID NO: 439)], the “IC50, Tau40 assay (ThT)” value was found to be 1680 nM.

As for [dW][dR][dV][dQ][dV][dR][dW] [wrvqvrw (PEPTIDE ID NO: 102)], the “IC50, Tau40 assay (ThT)” value was 1540 nM and 1570 nM.

[dF][dR][dL][dK][dL][dR][dF][dH] [frlklrfh (PEPTIDE ID NO: 426)]: the “IC50, Tau40 assay (ThT)” value turned out to be 1770 nM.

As to [dW][dQ][dL][dK][dV][dR][dW] [wqlkvrw (PEPTIDE ID NO: 273)], the “IC50, Tau40 assay (ThT)” value worked out at 1490 nM.

As to [dW][dR][dL][dK][dV][dR][dW][dE] [wrlkvrwe (PEPTIDE ID NO: 275)], the “IC50, Tau40 assay (ThT)” value came out at 1520 nM.

Consider [dR][dR][dL][dR][dI][dH][dW] [rrlrihw (PEPTIDE ID NO: 290)], for which the “IC50, Tau40 assay (ThT)” value came out at 1790 nM.

For [dW][dR][dL][dQ][dV][dR][dW] [wrlqvrw (PEPTIDE ID NO: 280)], the “IC50, Tau40 assay (ThT)” value is 1600 nM.

Take [dL][dH][dI][dK][dL][dR][dW][dH] [lhiklrwh (PEPTIDE ID NO: 151)]: the “IC50, Tau40 assay (ThT)” value was 1650 nM and 1830 nM.

For the molecule [dF][dK][dI][dR][dI][dH][dH][dY] [fkirihhy (PEPTIDE ID NO: 122)], the “IC50, Tau40 assay (ThT)” value is 1890 nM and 910 nM.

Turning to [dW][dF][dK][dI][dK][dL][dE][dL] [wfkiklel (PEPTIDE ID NO: 110)], the “IC50, Tau40 assay (ThT)” value was 1770 nM and 2530 nM.

For [dE][dI][dR][dL][dH][dW] [eirlhw (PEPTIDE ID NO: 74)], the “IC50, Tau40 assay (ThT)” value worked out at 1540 nM.

In the case of [dF][dK][dI][dK][dL][dK][dW] [fkiklkw (PEPTIDE ID NO: 35)], the “IC50, Tau40 assay (ThT)” value is 1740 nM and 1840 nM.

Regarding [dL][dK][dI][dW][dI][dH][dY][dH] [lkiwihyh (PEPTIDE ID NO: 299)], the “IC50, Tau40 assay (ThT)” value was found to be 1910 nM.

[dK][dL][dK][dL][dR][dW][dF] [klklrwf (PEPTIDE ID NO: 438)]: the “IC50, Tau40 assay (ThT)” value was 1670 nM.

[dF][dK][dI][dK][dI][dK][dW] (not fully specified; printed as fkikikw) [fkikikw (PEPTIDE ID NO: 60)]: the “IC50, Tau40 assay (ThT)” value is 1570 nM and 1650 nM.

[dT][dK][dI][dR][dI][dH][dY] [tkirihy (PEPTIDE ID NO: 283)]: the “IC50, Tau40 assay (ThT)” value came to 1630 nM.

Turning to [dL][dK][dI][dR][dI][dA][dY] [lkiriay (PEPTIDE ID NO: 271)], the “IC50, Tau40 assay (ThT)” value worked out at 1480 nM.

For the molecule [dL][dK][dI][dR][dI][dH][dR][dH] [lkirihrh (PEPTIDE ID NO: 274)], the “IC50, Tau40 assay (ThT)” value was determined as 1510 nM.

Turning to [dW][dR][dL][dK][dV][dQ][dW] [wrlkvqw (PEPTIDE ID NO: 281)], the “IC50, Tau40 assay (ThT)” value stood at 1620 nM.

With [dL][dK][dI][dH][dI][dH][dY][dH] [lkihihyh (PEPTIDE ID NO: 295)], the “IC50, Tau40 assay (ThT)” value worked out at 1850 nM.

As to [dF][dH][dI][dR][dL][dE][dW][dH] [fhirlewh (PEPTIDE ID NO: 139)], the “IC50, Tau40 assay (ThT)” value was 1860 nM and 2190 nM.

For the molecule [dW][dR][dL][dK][dV][dR][dE][dW] [wrlkvrew (PEPTIDE ID NO: 284)], the “IC50, Tau40 assay (ThT)” value amounted to 1640 nM.

[dW][dR][dT][dK][dV][dR][dW] [wrtkvrw (PEPTIDE ID NO: 276)]: the “IC50, Tau40 assay (ThT)” value came to 1560 nM.

For [dW][dH][dL][dR][dI][dR][dW] [whlrirw (PEPTIDE ID NO: 19)], the “IC50, Tau40 assay (ThT)” value is 1540 nM and 1630 nM.

Regarding [dW][dK][dV][dQ][dV][dR][dW] [wkvqvrw (PEPTIDE ID NO: 89)], the “IC50, Tau40 assay (ThT)” value was 1730 nM and 1760 nM.

In the case of [dF][dR][dL][dK][dV][dR][dW][dF] [frlkvrwf (PEPTIDE ID NO: 4)], the “IC50, Tau40 assay (ThT)” value is 1870 nM and 1910 nM and 870 nM.

As for [dL][dK][dI][dR][dI][dMet(O)][dY] [lkirixy (PEPTIDE ID NO: 297)], the “IC50, Tau40 assay (ThT)” value is 1880 nM.

For the molecule [dW][dR][dL][dK][dV][dR][dR][dW] [wrlkvrrw (PEPTIDE ID NO: 278)], the “IC50, Tau40 assay (ThT)” value was found to be 1580 nM.

Regarding [dW][dR][dL][dR][dI][dA][dW] [wrlriaw (PEPTIDE ID NO: 272)], the “IC50, Tau40 assay (ThT)” value stood at 1490 nM.

Regarding [dL][dW][dR][dL][dK][dV][dR][dW] [lwrlkvrw (PEPTIDE ID NO: 202)], the “IC50, Tau40 assay (ThT)” value is 720 nM.

As to [dW][dR][dL][dK][dV][dR][dW][dW] [wrlkvrww (PEPTIDE ID NO: 3)], the “IC50, Tau40 assay (ThT)” value is 1610 nM and 750 nM.

Regarding [dL][dK][dI][dR][dI][dH][dY][dR] [lkirihyr (PEPTIDE ID NO: 291)], the “IC50, Tau40 assay (ThT)” value turned out to be 1810 nM.

[dK][dI][dK][dI][dK][dW] [kikikw (PEPTIDE ID NO: 66)]: the “IC50, Tau40 assay (ThT)” value turned out to be 1870 nM.

With [dW][dK][dV][dK][dI][dQ][dY][dH] [wkvkiqyh (PEPTIDE ID NO: 100)], the “IC50, Tau40 assay (ThT)” value was 1560 nM and 1610 nM.

On to [dL][dR][dL][dH][dL][dR][dH][dW] [lrlhlrhw (PEPTIDE ID NO: 149)], for which the “IC50, Tau40 assay (ThT)” value is 1640 nM and 2060 nM.

With [dL][dR][dL][dR][dI][dK][dH][dF] [lrlrikhf (PEPTIDE ID NO: 150)], the “IC50, Tau40 assay (ThT)” value is 1780 nM and 2430 nM.

Consider [dF][dK][dL][dH][dI][dR][dH][dW] [fklhirhw (PEPTIDE ID NO: 128)], for which the “IC50, Tau40 assay (ThT)” value was 1710 nM and 1760 nM.

For [dW][dK][dV][dN][dV][dR][dL][dW] [wkvnvrlw (PEPTIDE ID NO: 95)], the “IC50, Tau40 assay (ThT)” value is 1670 nM and 1710 nM.

Turning to [dW][dR][dL][dK][dV][dR][dW] [wrlkvrw (PEPTIDE ID NO: 289)], the “IC50, Tau40 assay (ThT)” value is 1770 nM.

For [dL][dK][dV][dR][dW][dW][dW][dR] [lkvrwwwr (PEPTIDE ID NO: 199)], the “IC50, Tau40 assay (ThT)” value came out at 700 nM.

For the molecule [dW][dR][dL][dH][dV][dR][dW][dW] [wrlhvrww (PEPTIDE ID NO: 292)], the “IC50, Tau40 assay (ThT)” value was found to be 1820 nM.

With [dW][dN][dL][dK][dV][dR][dW] [wnlkvrw (PEPTIDE ID NO: 294)], the “IC50, Tau40 assay (ThT)” value turned out to be 1820 nM.

Regarding [dW][dK][dV][dW][dV][dR][dY][dW] [wkvwvryw (PEPTIDE ID NO: 92)], the “IC50, Tau40 assay (ThT)” value is 700 nM and 810 nM.

In the case of [dL][dK][dI][dQ][dI][dH][dY] [lkiqihy (PEPTIDE ID NO: 285)], the “IC50, Tau40 assay (ThT)” value was 1640 nM.

On to [dR][dL][dK][dV][dR][dW][dW] [rlkvrww (PEPTIDE ID NO: 298)], for which the “IC50, Tau40 assay (ThT)” value came to 1900 nM.

As for [dR][dT][dL][dK][dI][dV][dW][dR] [rtlkivwr (PEPTIDE ID NO: 22)], the “IC50, Tau40 assay (ThT)” value stood at 1670 nM.

As for [dK][dV][dR][dW][dW][dL][dR][dW] [kvrwwlrw (PEPTIDE ID NO: 201)], the “IC50, Tau40 assay (ThT)” value was 710 nM.

Consider [dW][dR][dI][dR][dL][dR][dY][dW] [wrirlryw (PEPTIDE ID NO: 104)], for which the “IC50, Tau40 assay (ThT)” value was 1910 nM and 2450 nM.

Turning to [dW][dR][dL][dE][dV][dR][dW][dW] [wrlevrww (PEPTIDE ID NO: 288)], the “IC50, Tau40 assay (ThT)” value worked out at 1720 nM.
